Assay results taken from US5162203A, “Methods of measuring isozymes and isozyme classes of alcohol dehydrogenase” (President and Fellows of Harvard College, priority 1989, dated 1992).
“And” between values parts separate entries of the source, which are not always exact repeats. Identical values can stand only once.

B1: β1 β1: Class I human ADH isozyme, β1 homodimer (protein, UniProt P00325 2-375, looked up)
All-trans-retinol …: STAGKVIKCKAAVLWEVKKPFSIEDVEVAPPKAYEVRIKMVAVGICHTDDHVVSGNLVTPLPVILGHEAAGIVESVGEGVTTVKPGDKVIPLFTPQCGKCRVCKNPESNYCLKNDLGNPRGTLQDGTRRFTCRGKPIHHFLGTSTFSQYTVVDENAVAKIDAASPLEKVCLIGCGFSTGYGSAVNVAKVTPGSTCAVFGLGGVGLSAVMGCKAAGAARIIAVDINKDKFAKAKELGATECINPQDYKKPIQEVLKEMTDGGVDFSFEVIGRLDTMMASLLCCHEACGTSVIVGVPPASQNLSINPMLLLTGRTWKGAVYGGFKSKEGIPKLVADFMAKKFSLDALITHVLPFEKINEGFDLLHSGKSIRTVLTF
modifications: homodimer
notes: Class I human ADH isozyme, β1 homodimer
B2: γ1γ1: Class I human ADH isozyme, γ1 homodimer (protein, UniProt P00326 2-375, looked up)
Alcohol dehydrogenase 1C: STAGKVIKCKAAVLWELKKPFSIEEVEVAPPKAHEVRIKMVAAGICRSDEHVVSGNLVTPLPVILGHEAAGIVESVGEGVTTVKPGDKVIPLFTPQCGKCRICKNPESNYCLKNDLGNPRGTLQDGTRRFTCSGKPIHHFVGVSTFSQYTVVDENAVAKIDAASPLEKVCLIGCGFSTGYGSAVKVAKVTPGSTCAVFGLGGVGLSVVMGCKAAGAARIIAVDINKDKFAKAKELGATECINPQDYKKPIQEVLKEMTDGGVDFSFEVIGRLDTMMASLLCCHEACGTSVIVGVPPDSQNLSINPMLLLTGRTWKGAIFGGFKSKESVPKLVADFMAKKFSLDALITNILPFEKINEGFDLLRSGKSIRTVLTF
modifications: homodimer
notes: Class I human ADH isozyme, γ1 homodimer
B3: Class II ADH: human liver Class II alcohol dehydrogenase (protein, UniProt P08319 1-380, looked up)
All-trans-retinol …: MGTKGKVIKCKAAIAWEAGKPLCIEEVEVAPPKAHEVRIQIIATSLCHTDATVIDSKFEGLAFPVIVGHEAAGIVESIGPGVTNVKPGDKVIPLYAPLCRKCKFCLSPLTNLCGKISNLKSPASDQQLMEDKTSRFTCKGKPVYHFFGTSTFSQYTVVSDINLAKIDDDANLERVCLLGCGFSTGYGAAINNAKVTPGSTCAVFGLGGVGLSAVMGCKAAGASRIIGIDINSEKFVKAKALGATDCLNPRDLHKPIQEVIIELTKGGVDFALDCAGGSETMKAALDCTTAGWGSCTFIGVAAGSKGLTIFPEELIIGRTINGTFFGGWKSVDSIPKLVTDYKNKKFNLDALVTHTLPFDKISEAFDLMNQGKSVRTILIF

What was measured:
[1] = Specific activity of purified ADH isozymes in ethanol oxidation assay; type: biochemical
From the text: The isozymes used as primary standards were homogeneous based on SDS-polyacrylamide, urea-polyacrylamide and starch gel electrophoresis as described above. […] Using ethanol as substrate in a conventional ADH assay as described in part 8 of this Example, the specific activity of each purified ADH isozyme was established by monitoring NADH production by the change in absorbance at 340 nm on a Cary 219 spectrophotometer calibrated with potassium chromate absorbance standards (Fisher Chem. Co., Medford, MA) The activity of the purified ADH Class I isozymes were also assayed according to methods of the present invention (Examples 1 (part 8), 2 and 4).
A modification of the procedure of Ditlow et al., 1984, Biochemistry 23:6363-68, was used to purify Class II ADH from human livers proceeding from the preparation of Class I isozymes as described in subpart (a) above. The effluent of the CapGapp column obtained during the loading and binding of Class I was concentrated to about 200 ml in an Amicon concentrator with a PM.30 membrane and dialyzed 16 hours against 10 liters of 10 mM potassium phosphate, 0.1 mM DTT, pH 7.4 containing 10 μM octanal. The sample was applied to a column (3×5 cm) of agarose-AMP affinity resin at a flow rate of 0.5 ml/minute followed by washing of the column with 200 ml of the dialysis buffer. The bound enzyme was eluted with 150 ml of the dialysis buffer with a gradient of NADH from 0 to 66 μg/ml.
Standard assays for ethanol oxidation activity (Dalziel, 1957, Acta Chem Scand 11:1706-23) were carried out on a Cary 219 spectrophotometer interfaced with an Apple IIe microcomputer, using software provided by Varian Associates. The reaction mixture contained 2.5 mM NAD^+ in 0.1M glycine-NaOH buffer. pH 10.0, and 33 mM or 0.2M ethanol for Class I and Class II ADH, respectively.

[2] = target: ADH in human serum (Class II) (Homo sapiens, UniProt P08319); assay: Fluorometric measurement of serum ADH activity with substrate IIA; type: biochemical; settings: Class II, substrate IIA
Protocol: All reaction mixtures (3 ml total volume) were prepared directly in 1 cm pathlength, 4 ml fluorometric cuvettes by adding 150 μl of the 300 μM substrate solution (e.g substrate IA or IIA) 100 μl of the 1 mM NADH solution (prepared as in part 5 above) and 2.69 ml of assay buffer (0.1M phosphate, pH 7.6). After thermal equilibration (25° C.) for 5 minutes, 60 μl of isozyme sample (either serum or purified ADH isozymes) was added to the cuvette.
The linear increase of fluorescence was then recorded for 1-10 minutes, until 0.03-1 μM of substrate was consumed. Larger substrate consumption was not found to be desirable (described in subpart (c) below). […] The added product fluorescence intensity was then measured Fluorescence measurements were optimized for samples with low activity (<1 nM/minute). […] Rates measured in the presence of the 0.2 mM ADH inhibitors. […]
The rates of aldehyde reduction, determined as initial velocities (V) and expressed in units of nM/minute, were calculated according to: [formula] where the quantity in parentheses is the slope of the linear fluorescence increase calculated from the quantities Ft and FO, the fluorescence at time t and at the beginning of the reaction, respectively. Cst is the concentration of the product used as a standard added to the cuvette after the initial rate had been measured and Fst is the fluorescence intensity of the added product […]

[3] = Effect of storage conditions and time on ADH activity in serum; type: physicochemical, human
Protocol: Fresh serum samples were obtained from the Clinical Chemistry Laboratory at Brigham and Women's Hospital, Boston, Mass. All serum measurements reported herein were performed within 5 hours of phlebotomy unless otherwise indicated On storage there is considerable variation in the ADH activity of serum samples from the same and different patients. FIGS. 5A and 5B show the effect of storage at 4° C. (closed circles) and room temperature (closed squares) in a typical serum sample, using substrate IA (FIG. 5A) and substrate IIA (FIG. 5B) as measured by the four-assay procedure of Example 4.

[4] = Reconstitution of purified ADH in inactive diluted human serum, substrate IIA; type: biochemical; settings: Class II, 50-fold diluted serum, listed as II
Protocol: The ADH isozymes employed were electrophoretically homogeneous with symmetrical HPLC elution profiles and had the highest constant specific activity. Their activity was established both by the standard A340 assay using ethanol and using substrates IA and IIA under conditions described herein, but in the absence of serum.
After the residual background reaction was recorded, a purified ADH isozyme prepared as described in Example 1 was then added and the rate measured as described in part 8 of Example 1. All measurements were made in triplicate.

| Molecule | specific activity ([1]; ethanol oxidation, pH 10) | limit of detection as isozyme concentration [2] | Average Activity Retained ([3]; 4 °C, 2 days) | Average Activity Retained ([3]; 23 °C, 1 day) | Average Activity Retained ([3]; 23 °C, 2 days) | stability of activity in serum ([3]; -70° C.) | Average Activity Retained ([3]; -70 °C, 30 days) | half-life of ADH activity in sera ([3]; room temperature) | specific activity ([1]; purified Class II ADH) | Recovery [4] |
| --- | --- | --- | --- | --- | --- | --- | --- | --- | --- | --- |
| B1 | 0.42 U/mg | – | – | – | – | – | – | – | – | – |
| B2 | 4.4 U/mg | – | – | – | – | – | – | – | – | – |
| B3 | – | 0.17 nM | 55% | 66% | 51% | at least one month | 100% | a few hours to >3 days | 1.5 U/mg | 82.0% and 83.4% and 85.9% and 81.3% |
